Experimental data: the nanobody polyreactivity screen of Harvey et al. (2022)

Experiment: yeast display, Sf9 membrane polyspecificity reagent, FACS + sequencing; frameworks hold sequencing errors
Method in brief: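 In a synthetic yeast display library (Saccharomyces cerevisiae BJ5465), nanobody expression was induced with galactose for 36–48 hours. FACS gates were set low and high (top ~1%) using anti-HA fluorescence for expression and streptavidin fluorescence for binding of the Sf9 membrane reagent. Each polyreactivity label is drawn from the gate of origin.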

Row | Sequence | polyreactivity (PSR sort gate)
1 | QVQLVESGGGLVQAGGSLRLSCGASGRIFSYYAMGWYRQAPGKERELVAAINTGGDTYYADSVKGRFTISRDNAKNTVYLQMNSLKPEDTAVYYCAAAYGWGYYYGYGYTPTYDYWGQGTQVTVSS | low polyreactivity
2 | QVQLVESGGGLVQAGGSLRLSCAACGSIFDYYTMGWYRQAPGKEREFVAGISDSGGSTNYADSVKGRFTISRDNAKNTVYLQINSLKPEDTAVYYCNAEYVGWFYKYDYWGQGTQVTVSS | high polyreactivity
3 | QVQLVESGGGLVQAGGSLRLSCAASGITFSRNAMGWYRQAPGKERELVATITSGGSTNYADSVKGRFTISRDNAKNTVYLQMNSLKPEDTAVYYCNAVWNTLISGRSYDYWGQGTQVTVSS | low polyreactivity
4 | QVQLVESGAGLVQAAGSLSLSCASAGSTFFLYAMGRYRRAHGKVREFVAAISDTGGSTYYADSVKGRFTISRDNATNTVYLQMISLKPEDTACYYCNRVVASFYRSRYDYWGQGTQVTVSS | low polyreactivity
5 | QVQLVESGGGLVQAGGSLRLSCAASGSTFRGYAMGWYRQAPGKERELVAAITSDGSTNYADSVKGRFTISRDNAKNTVYLQMNSLKPEDTAVYYCNVKATRKWWDRRVYRYNYWGQGTQVTVSS | high polyreactivity
6 | QVQLVESGGGLVQAGGSLRLSCAASGSTFPDYAMGWYRQAPGKDRELVAAISGDSDDTYYADSVKGRFTISRDNAKNTVYLQMNSLKPEDTAVYYCAARRGRAVYSVAYDYWGQGTQVTVSS | high polyreactivity
7 | QVQLVESGGGLVQAGGSLRLSCAASGSTFDHYAMGWYRQAPGKERELVAAITRSGGSTYYADSVKGRFTISRDNAKNTVYLQMNSLKPEDTAVYYCNARRWITSDYWGQGTQVTVSS | high polyreactivity
8 | QVQLVESGGGLVQAGGSLRLSCAASGYIFYRYTMGWYRQAPGKERELVAAISFRGGTTYYADSVKGRFTISRDNAKNTVYLQMNSLKPEDTAVYYCAARYGYYTSDYKYYYWGQGTQVTVSS | high polyreactivity
9 | QVQLVESGGGLVQAGGSHRLSCAASGSIFYSYAMGWYRQAPGKERELVAAITYDTGRTYYADSVKGRFTISRDNAKNTVYLQMNSLKPEDTAVYYCAVRPGYYWGYWPRFGYWGQGTQVTVSS | low polyreactivity
10 | QVQLVESGGGLVQAGGSLRLSCAASGIIFFYNAMGWYRQAPGKERELVAAISSDGSTYYADSVKGRFTISRDNAKNTVYLQMNSLKPEDTAVYYCNAGSLRYGPYNHWGQGTQVTVSS | low polyreactivity
11 | QVQLVESGGGLVQAGGSLRLSCAASGIIFYKYAMGWYRQAPGKERELVAAITSGGGRTYYADSVKGRFTISRDNPKNSVYLQMNSLKPEDTAVYYCAATRPATYAAYDYWGQGTQVTVSS | high polyreactivity
12 | QVQLEESGGGLVQAGGSLRLSCAASGRIFRYYAMGWSRQAPGKERELVAGISRGTSTYYADSVKGRFTISRDNAKNTVYLQMNSLKPEDTAVYYCAKGSIQYFRPYTFYSWGQGTQVTVSS | high polyreactivity
13 | QVQLVESGGGLVQAGGSLRLSCPASGFIFRRYVMGWYRQSPGKERELVAAISKSAVNTYYADSVKGRFTISRDNAKNTVYLQMNSLIPEDTEVYYCNKYGYKGGVGYDYWGQGTQVTVSS | high polyreactivity
14 | QVQLVESGGGLVQAGGSLRLSCAASGSIFKWYAMGWYRQAHGKERELVAAITNGGGSTYYADSVKGRFTISRDNAKNTVYLQMNSLKPEDTAVYYCNADSYYYPYDYWGQGTQVTVSS | low polyreactivity
15 | QVQLVESGGGLVQAGGSLRLSCAASGSTFVYYAMGWYSQAPGKERELVAAITRSGGRTYYADSVKGRFTNSRDNAKNRVYLQMNSLKPEDTAVYYCAADDYTGYGYWGQGTQVTVSS | high polyreactivity
16 | QVQLVESGGCLDQAGGSLRLSCAASGSIFYYYTMGWSRQAPGKEREFVATITYSGGSTYYADSVKGRITISRDNAKYTVYLQMNSLKPEDTAVYYCNARPRYYDWVDYWGQGTQVTVSS | low polyreactivity
17 | QVQLVESGGGLVQAGGSLRLSCAASGSTFQANAMAWYRPAPGKERELVAAISSRGGITYYADSVKARFTISRDNAKNTVYLQMNSLKPEDTAVYYCNALPRSTYRQGLGVRLYYWGQGTQVTVSS | high polyreactivity
18 | QVQIVESGGGLVQAGGSLRISCAASGFIFAYNSMGWNRQAPGKERELVAAISRSGGSTRYADSVKGRFPISRDNAKNTVFLQMNSLKPEDTAVYYCAAEYLGSYGYYEYDFWGQGTQVTVSS | high polyreactivity
19 | QVQLVESGGGLVQAGGSLRLSCAASGRTFLWNDMGWYRQAPGKERELVAAITGSDGTYADSVKGRFTISRDNAKNTVYLQMNSLKPEDTAVYYCAAVYSYQNEGYDYWGQGTQVTVSS | low polyreactivity
20 | QVQLVESGGGLVQAGGSLRLSCVPPDSSSLSMLWDGIDRRLGKKGSWLPVLTSRGVGTYYADSVKGRFTISRDNAKNTVYLQMNSLKPEDTAVYYCYARYEVFYRYDYWGQGTQVTVSS | low polyreactivity
21 | QVQLVESGGGLVQAGGSLRLSCAASGRISSSYDMGWYIQAPAKDRELVAAISSGSSTYYAHSVKVRFTISRDNAKNTVYLQMNSLKREDTAVYYCAKLHYAHYWGQGTQVTVSS | low polyreactivity
22 | QVQLVESGGGLVQAGGSLRLSCAASGGILYYYAMGWYRQAPGKERELVAGISVRGGRTNYADSVKGRFTISRDNAKNTVYLQMNSLKPEDTAVYYCAAETLYTSGYGSWGQGTQVTVSS | low polyreactivity

Row | Sequence | polyreactivity (PSR sort gate)
23 | QVQLVESGGGLVQAGGSLRLSCAASGSIFQYYVMGWYRQAPGKERELVAAIRRSGTTYYADSVKGRFTISRDNAMITVYLQMNSLKPEVTAFYYCKKVRCQEPSNYDYWGQGTQVTVSS | low polyreactivity
24 | QVQLVESGGGLVQAGGSLRLSCAASGSTYGYYTMGWYRQAPGKERELVAAITWSGGSTYYADSVKGRFTISRDIAKNTVYLQMNSLKPEDTAVYYCAADDYWTPFGYWGQCTQVTVSS | low polyreactivity
25 | QVQLVESGGGLVQAGGSLRLSCAASGFIFLENDMGWYRQAPGKERELVASINSGSDTNYADSVKGRFTISRDNAKNTVYLQMNSLKPEDTAVYYCNASYNGVPARYDYWGQGTQVTVSS | low polyreactivity
26 | QVELVESGGGLVQAGGSLRLSCAASGSTFVDNDMGWYRQAPGKERELVAAAITARGGSTYYADSVTGRFTISRDNAKNTDYIQMNSLKPEDTAVYYCAAGRPGELDYWGQGTQVTVSS | low polyreactivity
27 | QVQLVESGGGLVQAGGSLRLSCAASGSTFGGNAMGWYRQAPGKERELVASISSSGGRTYYADSVKGRFTISRDNAKNTVYLQMNSLKPEDTAVYYCAAKAWYPRVGFLRGGYWGQGTQVTVSS | high polyreactivity
28 | QVQLVESGGGLVQAGGSLRISCAASGRTFPVNAMGWYRQAPGKERELVAAITWSGDSTYYADSVKGRFTISCDNAKNTVYLQMNSLKPEDTAVYYCAAAYRYGTLYYYWGQGTQVTVSS | low polyreactivity
29 | QVQLLESGGGLVQAGGSLRLSCAASGSTFEANTMGWYSQAPGKDRELVASISSSGGSTNYADSVKGRFTISRDNAKNTVYLQMNRLKQEDTAVYYCAVRCTYARWNWRTADSSRDYWGQGTQVTVSS | low polyreactivity
30 | QVQLGESGGGLVQAGGSLRLSCAASGFIFRYYGMGWYRQAPGKERELVAAISRGGGSTYYADSVKGRFTISRDNAKNTVYLQMNSLKPEDTAVYYCATRRDPDYDYWGQGTQVTVSS | high polyreactivity
31 | QDQIVESRGRLVQAGGSLRLSCAASGRTFKPYAMGWYRQAPGKERELVARISGSGGSTYYADSVKGRFTISRDNAKNTVYLQMNSLKPEDTAVYDCATTPYYWFYYWGQGTQVTVSS | low polyreactivity
32 | QVQLVETGGGLVQAGGSLRLSCAASGFTLYYYARGWYRQAPGKERELVAAITARGVSTYADSVKGRFTISRDNAKNTVYLQMNSLKPEDTAVYYCAADRRYNVIGEFGYWGQGTQVTVSS | low polyreactivity
33 | QVQLVESGGGLVQAGGSLRLSCAASGSIFPAYTMGRYRQAPGKEREMVAAIPYSGARSTYYADSVKGRFTISRDNAKNTVYLQMYSLKPEDTAVYYCNARSRARYFYDMDYWGQGTLVTVSS | low polyreactivity
34 | QVQLVESGGGLVQAGGSLRLSCAASGFIFDTYAMGWYRQAPVKERELVAAISWTGTDTYYADSVKGRFTISRDNAKNTVYLQMNSLKPEDTAVYYCAARSRYKYSPSGDYWGQGTQVTVSS | high polyreactivity
35 | QVQLVESGGGLVQAGGSLRLSCAASGLIFPSYAMGWYRQAPGKERELVAGINSGGSTNYADSVKGRFTISRDNAKNTVYLQMNSLKPEDTAVYYCAKDNNYYWYVSPRDYWGQGTQVTVSS | low polyreactivity
36 | QVQLVESGGGLVQAGGSLRLSCAASGRIFVYYAMGWYRQAPGKERELVATITSSDITNDADSVKGRFTISCDNAKNTVYLQMNSLKPEDTAVYYCARDYYVYSSGHVPLDYWGQGTQVTVSS | low polyreactivity
37 | QVQLVESGGGLVQAGGRLRLSCAASGSIFVKYAMGCYRHAPGKERELVATIRRSGTSTYYADSVKGRFTISRDNAMNTVYLQMNSLKPEDPAVYYCAALRSLLYRTYGYWGQGTQVTVSS | low polyreactivity
38 | QVQLEESGGGLVQAGGSLRLSCAASGFIFYIYAMGWYRQAPGKERELVAAITSGGSTNYADSVKGRFTITRDNAKNTVYLQMNSLKPEDTAVYYCAADSYYGYDYWGQVTQVTVSS | low polyreactivity
39 | QVQLVESGGGLVQAGGSLRLSCAASGRIFRYYAMGWYRQAPGKERELVAAISYSGGRTYYADSVKGRFTISRDNAKNTVYLQMNSLKPEDTAVYYCARFWHSQSSYVPFDSWGQGTQVTVSS | high polyreactivity
40 | QVQLVESVGGLVQAGGSLRLSCAASGRTFSKYAMGWYRQEPGQERELVAAITSRGSSTYYADSVKGRFTISRDNANNTVYLQMNSLKPEETAVYYCNAGGYSKRTGRYRSGSDYWGQGTHVTVSS | high polyreactivity
41 | QVQLVESGGGLVQAGGSLRLSCAASGLIFYKNAMGSYRQAPGKEREFVAAISRSGASTYYSDSVMGRFTISRDYAKNTVYLQMKSLKPEVTEVYLCAARAGANYRMDYWGQGTQVTVSS | high polyreactivity
42 | QVQLVESGGGLVQAGGSLRLSCAASGLTSWYNAMGWYRQAPGKEREFVAAISFSGGRTFYADSVKGRFTISRDNAKKTVYLQMNSLKPEDTAGYYCNADVYGFDYWGQGTQVTVSS | high polyreactivity
43 | QVLLVESGGGLVQAGGPLRLSCAASGFIIRTNAMGWYREEPGKERELDAAISRRGRTDYADSVKGRFTISRDNAKNTVYLQMKSLTPEESAVYYCNAYYAIQDSVHRYYFWGQGTQGTVSS | high polyreactivity
